The target of the test is human full-length alpha-synuclein (human) (UniProt P37840). The test is described as follows: indirect ELISA on coated full-length alpha-synuclein, O.D. 405 nm.

Regarding Syn1 (antibody), the EC50 (read off the curve) was 6 ng/mL.

Usually EC50 (read off the curve) stands for the concentration giving half of the maximal effect.

These data come from US20250340623A1.
